Test results taken from patent US20250129166A1 (Five Prime, published 2025).
Numbering of substitutions follows the chain as printed. Names may count otherwise.

B1: P1-061029.IgG1.3 (antibody)
heavy: EVQLVESGGGLVQPGKSLRLSCAASGFTLDDYAMHWVRQAPGKGLEWVSGINWNSANIGYADSVKGRFTISRDNAKNSLYLQMNSLRTEDTALYYCAKVPGYSGGWIDAFDVWGQGTMVTVSSASTKGPSVFPLAPSSKSTSGGTAALGCLVKDYFPEPVTVSWNSGALTSGVHTFPAVLQSSGLYSLSSVVTVPSSSLGTQTYICNVNHKPSNTKVDKRVEPKSCDKTHTCPPCPAPEAEGAPSVFLFPPKPKDTLMISRTPEVTCVVVDVSHEDPEVKFNWYVDGVEVHNAKTKPREEQYNSTYRVVSVLTVLHQDWLNGKEYKCKVSNKALPAPIEKTISKAKGQPREPQVYTLPPSREEMTKNQVSLTCLVKGFYPSDIAVEWESNGQPENNYKTTPPVLDSDGSFFLYSKLTVDKSRWQQGNVFSCSVMHEALHNHYTQKSLSLSPG
light: not shown
notes: IgG1.3 = effectorless IgG1 (L234A, L235E, G237A); also called P1-061029 (parent); P1-061029 hIgG1.3f
B2: P1-068761.IgG1.3 (antibody)
heavy: B1 heavy with D30E, Y32E, A56E, N57E, G104H, F110E
light: not shown
notes: IgG1.3; also called P1-068761 hIgG1.3f; P1-0687617
B3: P1-068767_D52N_D102V (antibody, human IgG1, kappa, V domains shown)
VH: EVQLVESGGGLVQPGKSLRLSCAASGFTLEDYAMHWVRQAPGKGLEWVSGINWNSENIGYADSVKGRFTISRDNAKNSLYLQMNSLRTEDTALYYCAKVPGYSGGWIDAEDVWGQGTMVTVSS
VL: not shown
notes: also called P1-070930
B4: P1-068767_D102V (antibody, human IgG1, kappa, V domains shown)
VH: B3 VH with N52D
VL: not shown
notes: also called P1-070912
B5: P1-068767_E30D_D102V (antibody, human IgG1, kappa, V domains shown)
VH: B3 VH with E30D, N52D
VL: not shown
notes: also called P1-070926
B6: P1-068767_E55A_D102V (antibody, human IgG1, kappa, V domains shown)
VH: B3 VH with N52D, E56A
VL: not shown
notes: also called P1-070932
B7: P1-068767_E100fF_D102V (antibody, human IgG1, kappa, V domains shown)
VH: B3 VH with N52D, E110F
VL: not shown
notes: also called P1-070920
B8: P1-070906 (P1-068767_D52N) IgG1.3 (antibody, V domains shown)
VH: B3 VH with V112D
VL: not shown
notes: IgG1.3
B9: P1-070908 (P1-068767_E55A) IgG1.3 (antibody, V domains shown)
VH: B3 VH with N52D, E56A, V112D
VL: not shown
notes: IgG1.3
B10: P1-070916 (P1-068767_D52N_E55A) IgG1.3 (antibody, V domains shown)
VH: B3 VH with E56A, V112D
VL: not shown
notes: IgG1.3
B11: P1-068767_E30D_E100fF (antibody, human IgG1, kappa, V domains shown)
VH: B3 VH with E30D, N52D, E110F, V112D
VL: not shown
notes: also called P1-070924
B12: P1-068767_E100fF (antibody, human IgG1, kappa, V domains shown)
VH: B3 VH with N52D, E110F, V112D
VL: not shown
notes: also called P1-070910
B13: VISTA.5 (mAb1) (antibody, V domains shown)
VH: AVQLQESGPGLVRPSQSLSLTCTVTDYSITSDYAWNWIRQFPGSKLEWLGFIGYSGNTNYNPSLESRISITRHTSKNQFFLHLNSMTTEDTATYYCARSLYGGSHWYFDVWGAGTTVTVSS
VL: DIVLTQSPASLAVSLGQRATISCRGSESVEYYGTILMQWYQQKPGQPPKLLIYGASNVESGVPARFSGSGSGTDFSLNIHPVEEDDIAMYFCQQSRKVPWTFGGGTKLEIK

biological target: T1, monovalent hVISTA-ECD (amino acids 32-193 of SEQ ID NO: 1 with a 7xHis tail) (human, UniProt Q9H7M9 33-193); assay: SPR, mAb captured on Protein A, hVISTA-ECD analyte, 37 C, pH 6.7
T1 construct: also called huVISTA-His; human VISTA-ECD
Description: (§1) Binding kinetics were measured using a Biacore® T100 instrument (GE Healthcare). Protein A (ThermoFisher Scientific catalog #21181) was diluted to 20 μg/ml in 10 mM sodium acetate pH 4.5 and immobilized onto flow cells of a CM5 biosensor following the manufacturer's amine coupling protocol (GE Healthcare), targeting 2,000 RU immobilization density of Protein A per flow cell. The assay was conducted at 37° C. using PBST (137 mM sodium chloride, 2.7 mM potassium chloride, 10 mM phosphate buffer, 0.05% Tween 20) running buffer at pH 7.4, 6.7 and 6.0. Antibodies were diluted to 25 nM in PBST pH 7.4, and were captured across active biosensor flow cells at 5 ul/min for 40 seconds. A concentration series of 100-10 nM monovalent hVISTA-ECD (SEQ ID NO: 325) was prepared in pH 7.4, 6.7 and 6.0 running buffers, and was injected over the captured antibodies at 40 ul/min to measure association and dissociation. Two 15 second injections of 10 mM glycine pH 1.5 were used to regenerate the Protein A capture surface between assay cycles. Rate constants ka (kon) and kd (koff) were derived from reference flow cell and 0 nM blank-subtracted sensorgrams, and were fit to a 1:1 binding model in Biacore® T200 Evaluation Software v.2.0.
(§2) The affinity constant, KD was calculated as the ratio of rate constants koff/kₒₙ for each VISTA antibody. The % Rmax was calculated to compare how pH affects an antibody's binding capacity for VISTA, and represents the measured maximal VISTA binding response relative to the expected maximal VISTA binding response. The % Rmax is defined as the ratio of the reference-subtracted ‘binding’ report point response at the end of the 100 nM VISTA injection for each antibody (Rmax) relative to the expected VISTA binding response (Rexp). Rexp is calculated as Rexp=[(VISTA-ECD molecular weight/mAb molecular weight)×(mAb ‘capture’ report point response (RUs)]×2 binding sites per mAb.

Binder	koff [s⁻¹]
B1	0.0044
B2	0.0066

biological target: T1, monovalent hVISTA-ECD (amino acids …); assay: SPR, mAb on Protein A, 37C, pH 6.0
Description: (§3) Binding of several preparations of each of the '029 progeny clones and of the parent '029 antibodies, formatted as IgG1.3 antibodies, to human VISTA at pH 6.0 and 7.4 was measured by Surface plasmon resonance (SPR). SPR analysis was performed to measure koff and KD binding affinity measurements for VISTA Abs at acidic and neutral pHs using a Biacore® T100 instrument (GE Healthcare). Protein A (ThermoFisher Scientific catalog #21181) was diluted to 20 μg/ml in 10 mM sodium acetate pH 4.5 and immobilized onto flow cells of a CM5 biosensor following the manufacturer's amine coupling protocol (GE Healthcare), targeting 2,000 RU immobilization density of Protein A per flow cell. SPR experiments were conducted at 37° C. using PBST (137 mM sodium chloride, 2.7 mM potassium chloride, 10 mM phosphate buffer, 0.05% Tween® 20) running buffer at pH 7.4 and 6.0. Antibodies were diluted to 25 nM in PBST pH 7.4, and were captured across active biosensor flow cells at 5 ul/min for 60 seconds. A concentration series of 50-5 nM monovalent hVISTA-ECD (SEQ ID NO: 325) was prepared in pH 7.4 and 6.0 running buffers, and was injected over the captured antibodies at 40 ul/min to measure association and dissociation. Two 15 second injections of 10 mM glycine pH 1.5 were used to regenerate the Protein A capture surface between assay cycles. Rate constants ka (kₒₙ) and kd (koff) were derived from reference flow cell and 0 nM blank-subtracted sensorgrams, and were fit to a 1:1 binding model in Biacore® T200 Evaluation Software v.2.0. The affinity constant, KD was calculated as the ratio of rate constants koff/kₒₙ for each VISTA antibody.

Binder	Kd [nM]	kon [M⁻¹ s⁻¹]
B1	7.4	780000
B2	5.5	280000

biological target: T1, monovalent hVISTA-ECD (amino acids …); assay: SPR, mAb on Protein A, 37C, pH 7.4
Description: as §3

Binder	Kd [nM]	kon [M⁻¹ s⁻¹]
B1	36	180000

biological target: T1, monovalent hVISTA-ECD (amino acids …); assay: SPR, mAb captured on Protein A, hVISTA-ECD analyte, 37 C, pH 6.0
Description: as §1, §2

Binder	koff [s⁻¹]
B1	0.0082

biological target: T1, monovalent hVISTA-ECD (amino acids …); assay: as above; remark: another data set of the same source
Description: as §1, §2

Binder	koff [s⁻¹]
B1	0.0082
B3	0.0012
B4	0.002
B5	0.003
B6	0.002
B7	0.0082
B8	0.0015
B9	0.0023
B10	0.0015

biological target: T1, monovalent hVISTA-ECD (amino acids …); assay: SPR, mAb captured on Protein A, hVISTA-ECD analyte, 37 C, pH 6.7; remark: another data set of the same source
Description: as §1, §2

Binder	koff [s⁻¹]
B1	0.0044
B3	0.0018
B4	0.0028
B5	0.0035
B11	0.027
B6	0.0031
B12	0.026
B7	0.0047
B8	0.0067
B9	0.0085
B10	0.0055

biological target: T1, monovalent hVISTA-ECD (amino acids …); assay: SPR, mAb captured on Protein A, hVISTA-ECD analyte, 37 C, pH 7.4
Description: as §1, §2

Binder	koff [s⁻¹]
B3	0.0067
B4	0.0092
B5	0.011
B6	0.01
B7	0.0083

biological target: T1, monovalent hVISTA-ECD (amino acids …); assay: SPR, mAb on Protein A, 37C, pH 6.0; pH 6.0
Description: as §3

Binder	Kd [nM]	koff [s⁻¹]	kon [M⁻¹ s⁻¹]
B8	6.7	0.0016	240000
B9	11	0.0025	220000
B10	7.4	0.0017	230000

biological target: T2, hVISTA multimer: monobiotinylated hVISTA ECD (Phe 33-Ala 194, Accession #AAH20568, polyhistidine) loaded on … (human, UniProt Q9H7M9 33-194, limits assumed, monobiotinylated; loaded at a 28:1 molar ratio onto PE-conjugated streptavidin dextramers); assay: blocking of VISTA multimer binding to activated human CD4+ T cells, flow cytometry, pH 6.0
T2 construct: also called hVISTA-loaded dextramers; recombinant VISTA multimer
T2 sequence (looked up): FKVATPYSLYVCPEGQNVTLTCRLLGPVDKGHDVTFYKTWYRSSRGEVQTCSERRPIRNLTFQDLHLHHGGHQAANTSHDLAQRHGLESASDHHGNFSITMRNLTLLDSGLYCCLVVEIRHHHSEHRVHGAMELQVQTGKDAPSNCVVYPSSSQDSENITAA
Description: As a control, activated CD4+ T cells were stained with PE-conjugated streptavidin dextramers that were not loaded with hVISTA. The stained cells were washed with HBSS+MES and acquired on a flow cytometer. Data were analyzed using FlowJo™ software (BD Biosciences). […] Left, from darker gray to lighter, the filled histograms depict binding at pH 7.0, 6.5, 6.4, 6.3, 6.1, and 6.0. Some histograms are labeled with their corresponding pH. Non-VISTA control multimer binding at pH 6.0 is shown as the unfilled histogram. Right, graphed PE mean fluorescence intensities (MFI) of CD4+ T cells stained with hVISTA-loaded dextramers (circles) or with non-loaded dextramers (triangles) at various pH.
This blocking assay was performed as described in Example 4.

Binder	IC50 (read off the curve) [µg/mL]
B1	~0.05
B2	~0.03

biological target: T3, human VISTA on cells (endogenous on human monocytes and AML3 cells; ectopic full-length on 293T cells) (human, UniProt Q9H7M9 33-311); assay: cell-based or functional assay
T3 sequence (looked up): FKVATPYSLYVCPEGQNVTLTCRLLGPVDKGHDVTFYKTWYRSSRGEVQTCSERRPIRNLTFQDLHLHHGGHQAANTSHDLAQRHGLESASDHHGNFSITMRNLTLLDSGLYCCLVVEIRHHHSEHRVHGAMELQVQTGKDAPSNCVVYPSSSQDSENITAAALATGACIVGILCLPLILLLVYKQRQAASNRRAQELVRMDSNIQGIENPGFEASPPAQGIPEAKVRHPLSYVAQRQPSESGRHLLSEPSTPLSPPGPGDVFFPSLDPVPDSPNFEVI

Binder	EC50 of AML3 cell viability (Cell Titer Glo), endolysosome-dependent secondary antibody drug conjugate killing assay [µg/mL]
B13	0.485
